Laboratory results as given in article doi:10.1101/2020.01.09.899195 (bioRxiv, 2020).

T1: MinD(R3E) (Escherichia coli, UniProt P0AEZ3 1-270, R3E)
T1 sequence (looked up): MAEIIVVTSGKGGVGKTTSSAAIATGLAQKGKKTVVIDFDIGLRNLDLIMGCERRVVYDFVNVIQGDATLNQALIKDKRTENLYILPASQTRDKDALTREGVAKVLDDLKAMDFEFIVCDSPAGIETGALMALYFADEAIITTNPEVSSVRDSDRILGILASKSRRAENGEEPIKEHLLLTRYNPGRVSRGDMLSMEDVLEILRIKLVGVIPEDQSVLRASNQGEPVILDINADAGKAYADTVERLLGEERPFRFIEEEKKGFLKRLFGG

B1: ClpP (enzyme)
chain: not shown
B2: MinC (natural protein, Escherichia coli, UniProt P18196 1-231, looked up)
chain: MSNTPIELKGSSFTLSVVHLHEAEPKVIHQALEDKIAQAPAFLKHAPVVLNVSALEDPVNWSAMHKAVSATGLRVIGVSGCKDAQLKAEIEKMGLPILTEGKEKAPRPAPTPQAPAQNTTPVTKTRLIDTPVRSGQRIYAPQCDLIVTSHVSAGAELIADGNIHVYGMMRGRALAGASGDRETQIFCTNLMAELVSIAGEYWLSDQIPAEFYGKAARLQLVENALTVQPLN

What was measured:
ClpX = ClpX (Escherichia coli, UniProt P0A6H1 1-424); test: negative-stain transmission electron microscopy
MinD(R3E) = target: T1, MinD(R3E); test: 90° light scatter

Binder	binding result (ClpX)	binding result (MinD(R3E))
B1	binds	–
B2	–	binds
